In US20220211812A1 (Bristol-Myers Squibb, published 2022):
Square brackets hold non-standard residues; d marks the D form. Ends that are not written are not given here. Phe(4-Ac) = CC(=O)c1ccc(C[C@H](N)C(=O)O)cc1

B1: AQ1-KSGGSGG-Glu^γ-C13-COOH (ligand)
chain 1: XLYSALANKCCHVGCTKRSLARFC
chain 2: ASWMEEVIKLCGRELVRAQIAICGMSTWS
peptide: KSGGSGGE
modifications: not fully specified; Glu^γ bonded by amide to fatty acid -C13-COOH; oxime-linked to pAcF of the A chain; pAcF (para-acetyl-L-phenylalanine) at position 1, oxime-linked to PK enhancer KSGGSGG-Glu^γ-C13-COOH
B2: AQ1-KKKSGGSGG-Glu^γ-C13-COOH (ligand)
chain 1: XLYSALANKCCHVGCTKRSLARFC
chain 2: ASWMEEVIKLCGRELVRAQIAICGMSTWS
peptide: KKKSGGSGGE
modifications: not fully specified; Glu^γ bonded by amide to fatty acid -C13-COOH; oxime-linked to pAcF of the A chain; pAcF (para-acetyl-L-phenylalanine) at position 1, oxime-linked to PK enhancer KKKSGGSGG-Glu^γ-C13-COOH
B3: AQ1-KKSGGSGGEE-Glu^γ-C13-COOH (ligand)
chain 1: XLYSALANKCCHVGCTKRSLARFC
chain 2: ASWMEEVIKLCGRELVRAQIAICGMSTWS
peptide: KKSGGSGGEEE
modifications: not fully specified; Glu^γ bonded by amide to fatty acid -C13-COOH; oxime-linked to pAcF of the A chain; pAcF (para-acetyl-L-phenylalanine) at position 1, oxime-linked to PK enhancer KKSGGSGGEE-Glu^γ-C13-COOH
B4: AQ1-dKdKdKdKdKdK-Glu^γ-C13-COOH (ligand)
chain 1: XLYSALANKCCHVGCTKRSLARFC
chain 2: ASWMEEVIKLCGRELVRAQIAICGMSTWS
peptide: KKKKKKE
modifications: not fully specified; dK = D-lysine (six); Glu^γ bonded by amide to fatty acid -C13-COOH; oxime-linked to pAcF of the A chain; pAcF (para-acetyl-L-phenylalanine) at position 1, oxime-linked to PK enhancer dKdKdKdKdKdK-Glu^γ-C13-COOH
B5: BM25/AN1-C13-CH3 (ligand)
chain 1: NLYSALANKCCHVGCTKRSLARFC
chain 2: ASWMEEVIKLCGRELVRAQIAICG[Phe(4-Ac)]STWS
modifications: disulfide (positions not given here); not fully specified (some residues); ends not checked; also: PK enhancer C13-CH3 oxime-linked to pAcF25
B6: AQ1-EESGGSGG-Glu^γ-C13-COOH (ligand)
chain 1: XLYSALANKCCHVGCTKRSLARFC
chain 2: ASWMEEVIKLCGRELVRAQIAICGMSTWS
peptide: EESGGSGGE
modifications: not fully specified; Glu^γ bonded by amide to fatty acid -C13-COOH; oxime-linked to pAcF of the A chain; pAcF (para-acetyl-L-phenylalanine) at position 1, oxime-linked to PK enhancer EESGGSGG-Glu^γ-C13-COOH
B7: AQ1-GGGGS-Glu^γ-C15-COOH (ligand)
chain 1: XLYSALANKCCHVGCTKRSLARFC
chain 2: ASWMEEVIKLCGRELVRAQIAICGMSTWS
peptide: GGGGSE
modifications: not fully specified; Glu^γ bonded by amide to fatty acid -C15-COOH; oxime-linked to pAcF of the A chain; pAcF (para-acetyl-L-phenylalanine) at position 1, oxime-linked to PK enhancer GGGGS-Glu^γ-C15-COOH
B8: AQ1-GSGSGSGS-Glu^γ-C15-COOH (ligand)
chain 1: XLYSALANKCCHVGCTKRSLARFC
chain 2: ASWMEEVIKLCGRELVRAQIAICGMSTWS
peptide: GSGSGSGSE
modifications: not fully specified; Glu^γ bonded by amide to fatty acid -C15-COOH; oxime-linked to pAcF of the A chain; pAcF (para-acetyl-L-phenylalanine) at position 1, oxime-linked to PK enhancer GSGSGSGS-Glu^γ-C15-COOH
B9: AQ1-EEEGGG-Glu^γ-C15-COOH (ligand)
chain 1: XLYSALANKCCHVGCTKRSLARFC
chain 2: ASWMEEVIKLCGRELVRAQIAICGMSTWS
peptide: EEEGGGE
modifications: not fully specified; Glu^γ bonded by amide to fatty acid -C15-COOH; oxime-linked to pAcF of the A chain; pAcF (para-acetyl-L-phenylalanine) at position 1, oxime-linked to PK enhancer EEEGGG-Glu^γ-C15-COOH
B10: AQ1-EEEGGG-Glu^γ-C17-COOH (ligand)
chain 1: XLYSALANKCCHVGCTKRSLARFC
chain 2: ASWMEEVIKLCGRELVRAQIAICGMSTWS
peptide: EEEGGGE
modifications: not fully specified; Glu^γ bonded by amide to fatty acid -C17-COOH; oxime-linked to pAcF of the A chain; pAcF (para-acetyl-L-phenylalanine) at position 1, oxime-linked to PK enhancer EEEGGG-Glu^γ-C17-COOH
B11: AQ1-EEEGGG-Glu^γ-C13-CH3 (ligand)
chain 1: XLYSALANKCCHVGCTKRSLARFC
chain 2: ASWMEEVIKLCGRELVRAQIAICGMSTWS
peptide: EEEGGGE
modifications: not fully specified; Glu^γ bonded by amide to fatty acid -C13-CH3; oxime-linked to pAcF of the A chain; pAcF (para-acetyl-L-phenylalanine) at position 1, oxime-linked to PK enhancer EEEGGG-Glu^γ-C13-CH3
B12: AQ1-EEEGGG-Glu^γ-C15-CH3 (ligand)
chain 1: XLYSALANKCCHVGCTKRSLARFC
chain 2: ASWMEEVIKLCGRELVRAQIAICGMSTWS
peptide: EEEGGGE
modifications: not fully specified; Glu^γ bonded by amide to fatty acid -C15-CH3; oxime-linked to pAcF of the A chain; pAcF (para-acetyl-L-phenylalanine) at position 1, oxime-linked to PK enhancer EEEGGG-Glu^γ-C15-CH3
B13: AQ1-EEEGGG-dGlu^γ-C13-COOH (ligand)
chain 1: XLYSALANKCCHVGCTKRSLARFC
chain 2: ASWMEEVIKLCGRELVRAQIAICGMSTWS
peptide: EEEGGGE
modifications: not fully specified; dGlu^γ = D-glutamic acid (gamma), linked to fatty acid -C13-COOH; oxime-linked to pAcF of the A chain; pAcF (para-acetyl-L-phenylalanine) at position 1, oxime-linked to PK enhancer EEEGGG-dGlu^γ-C13-COOH
B14: AQ1-EEEGGG-Glu^γ-C14-COOH (ligand)
chain 1: XLYSALANKCCHVGCTKRSLARFC
chain 2: ASWMEEVIKLCGRELVRAQIAICGMSTWS
peptide: EEEGGGE
modifications: not fully specified; Glu^γ bonded by amide to fatty acid -C14-COOH; oxime-linked to pAcF of the A chain; pAcF (para-acetyl-L-phenylalanine) at position 1, oxime-linked to PK enhancer EEEGGG-Glu^γ-C14-COOH
B15: AQ1-EGGGGSK-Glu^γ-C13-COOH (ligand)
chain 1: XLYSALANKCCHVGCTKRSLARFC
chain 2: ASWMEEVIKLCGRELVRAQIAICGMSTWS
peptide: EGGGGSKE
modifications: not fully specified; Glu^γ bonded by amide to fatty acid -C13-COOH; oxime-linked to pAcF of the A chain; pAcF (para-acetyl-L-phenylalanine) at position 1, oxime-linked to PK enhancer EGGGGSK-Glu^γ-C13-COOH
B16: RLX-AQ1 (ligand)
chain 1: XLYSALANKCCHVGCTKRSLARFC
chain 2: ASWMEEVIKLCGRELVRAQIAICGMSTWS
modifications: pAcF (para-acetyl-L-phenylalanine) at position 1
B17: AQ1-EEEEEE-Glu^γ-C15-COOH (ligand)
chain 1: XLYSALANKCCHVGCTKRSLARFC
chain 2: ASWMEEVIKLCGRELVRAQIAICGMSTWS
peptide: EEEEEEE
modifications: not fully specified; Glu^γ bonded by amide to fatty acid -C15-COOH; oxime-linked to pAcF of the A chain; pAcF (para-acetyl-L-phenylalanine) at position 1, oxime-linked to PK enhancer EEEEEE-Glu^γ-C15-COOH
B18: AQ1-Compound 39 (ligand)
chain 1: XLYSALANKCCHVGCTKRSLARFC
chain 2: ASWMEEVIKLCGRELVRAQIAICGMSTWS
modifications: pAcF (para-acetyl-L-phenylalanine) at position 1, oxime-linked to Compound 39 ((S)-1-(aminooxy)-33-carboxy-4,7,17,27,35-pentaoxo-11,14,21,24-tetraoxa-3,8,18,28,34-pentaazadopentacontan-52-oic acid)
B19: AQ1-EEEEPEEEEPEEEEPEEEE-Glu^γ-C14-CH3 (ligand)
chain 1: XLYSALANKCCHVGCTKRSLARFC
chain 2: ASWMEEVIKLCGRELVRAQIAICGMSTWS
peptide: EEEEPEEEEPEEEEPEEEEE
modifications: not fully specified; Glu^γ bonded by amide to fatty acid -C14-CH3; oxime-linked to pAcF of the A chain; pAcF (para-acetyl-L-phenylalanine) at position 1, oxime-linked to PK enhancer EEEEPEEEEPEEEEPEEEE-Glu^γ-C14-CH3
B20: AQ1-EEEEPEEEEPEEEEPEEEE-Glu^γ-C15-CH3 (ligand)
chain 1: XLYSALANKCCHVGCTKRSLARFC
chain 2: ASWMEEVIKLCGRELVRAQIAICGMSTWS
peptide: EEEEPEEEEPEEEEPEEEEE
modifications: not fully specified; Glu^γ bonded by amide to fatty acid -C15-CH3; oxime-linked to pAcF of the A chain; pAcF (para-acetyl-L-phenylalanine) at position 1, oxime-linked to PK enhancer EEEEPEEEEPEEEEPEEEE-Glu^γ-C15-CH3

Molecular target: T1, human RXFP1 receptor (human, UniProt Q9HBX9 1-757)
T1 sequence (looked up): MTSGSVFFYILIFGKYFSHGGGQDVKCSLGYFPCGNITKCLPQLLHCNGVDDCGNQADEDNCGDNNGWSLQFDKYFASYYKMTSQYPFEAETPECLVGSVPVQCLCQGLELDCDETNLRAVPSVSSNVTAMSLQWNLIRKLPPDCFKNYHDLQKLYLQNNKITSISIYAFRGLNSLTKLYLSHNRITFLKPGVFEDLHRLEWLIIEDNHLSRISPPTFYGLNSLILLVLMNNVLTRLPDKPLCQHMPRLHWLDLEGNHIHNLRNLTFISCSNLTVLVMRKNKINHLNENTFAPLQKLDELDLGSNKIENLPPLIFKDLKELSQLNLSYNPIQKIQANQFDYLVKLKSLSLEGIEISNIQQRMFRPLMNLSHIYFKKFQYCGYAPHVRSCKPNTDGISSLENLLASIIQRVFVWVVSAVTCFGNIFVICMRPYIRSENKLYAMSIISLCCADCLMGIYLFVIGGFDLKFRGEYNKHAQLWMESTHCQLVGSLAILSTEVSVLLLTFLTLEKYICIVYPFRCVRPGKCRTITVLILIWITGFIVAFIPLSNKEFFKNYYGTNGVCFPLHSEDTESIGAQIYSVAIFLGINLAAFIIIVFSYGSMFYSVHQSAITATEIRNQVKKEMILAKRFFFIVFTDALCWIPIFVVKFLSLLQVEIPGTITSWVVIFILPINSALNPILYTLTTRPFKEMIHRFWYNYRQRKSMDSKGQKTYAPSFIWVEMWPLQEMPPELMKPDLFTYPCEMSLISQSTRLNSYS
Experiment: cell-based or functional assay

| Binder | hRXFP1/CHO-K1 cAMP EC50 (nM, avg) |
| --- | --- |
| B1 | 0.24 nM |
| B2 | 0.14 nM |
| B3 | 0.16 nM |
| B4 | 0.1 nM |
| B5 | 1.85 nM |
| B6 | 0.83 nM |
| B7 | 1.55 nM |
| B8 | 2.79 nM |
| B9 | 5.26 nM |
| B10 | 10.5 nM |
| B11 | 0.38 nM |
| B12 | 0.46 nM |
| B13 | 1.91 nM |
| B14 | 1.88 nM |
| B15 | 0.31 nM |
| B16 | 0.11 nM |
| B17 | 11.1 nM |
| B18 | 2.23 nM |
| B19 | 0.33 nM |
| B20 | 0.34 nM |
